Reference: US20240218052A1

B1: SKD chimeric bovine-human IgG1 (ultralong CDR3) (antibody)
VH: QVQLRESGPSLVKPSQTLSLTCTASGFSLSDKAVGWVRQAPGKALEWLGSIDTGGNTGYNPGLKSRLSITKDNSKSQVSLSVSSVTTEDSATYYCTTVHQRTSEKRSCPGGSSRRYPSGASCDVSGGACACYVSNCRGVLCPTLNEIVAYTYEWHVDAWGQGLLVTVSS
VL: QAVLNQPSSVSGSLGQRVSITCSGSSSNVGNGYVSWYQLIPGSAPRTLIYGDTSRASGVPDRFSGSRSGNTATLTISSLQAEDEADYFCASAEDSSSNAVFGSGTTLTVL
B2: SKM chimeric bovine-human IgG1 (ultralong CDR3) (antibody)
VH: QVQLRESGPSLVKPSQTLSLTCTASGFSLSDKAVGWVRQAPGKALEWLGSIDTGGNTGYNPGLKSRLSITKDNSKSQVSLSVSSVTTEDSATYYCTTVHQETLRSCPDGYIDNSGCTADWGCAALDCWRRRFGYHSTDPSHYTGATYIYTYSLHIDAWGQGLLVTVSS
VL: B1 VL

Target: SARS CoV-2 parental (Wuhan-Hu-1) receptor binding domain (RBD) protein, amino acids 319 to 541 of th (SARS-CoV-2, Wuhan-Hu-1 isolate), P0DTC2
Test: ELISA, antigen coated, chimeric IgG1 titrated, anti-human Fc-HRP
Settings: remark: other sources report otherwise

Row | Binder | EC50
1 | B1 | 190 pM
2 | B2 | 240 pM
